Measurements reported in publication PMC7672075.
Residue numbers refer to the chain shown, from its start. In names and notes the source's numbering stands. Where no end group is shown, it is not given here. [ ]: non-standard residue; d: D form. pS = N[C@@H](COP(=O)(O)O)C(=O)O

B1: MCPH1^TBM peptide phosphorylated at S333, synthetic (peptide)
peptide: SQETFEEKYRL[pS]PTLSSTKGH
modifications: also: phosphoserine at S333, position in peptide not given here
B2: MCPH1^TBM peptide S333D, synthetic (peptide)
peptide: SQETFEEKYRLDPTLSSTKGH
B3: MCPH1^TBM peptide S333E, synthetic (peptide)
peptide: SQETFEEKYRLEPTLSSTKGH
B4: FLAG-tagged WT MCPH1 (human) (natural protein)
chain: MAAPILKDVVAYVEVWSSNGTENYSKTFTTQLVDMGAKVSKTFNKQVTHVIFKDGYQSTWDKAQKRGVKLVSVLWVEKCRTAGAHIDESLFPAANMNEHLSSLIKKKRKCMQPKDFNFKTPENDKRFQKKFEKMAKELQRQKTNLDDDVPILLFESNGSLIYTPTIEINSRHHSAMEKRLQEMKEKRENLSPTSSQMIQQSHDNPSNSLCEAPLNISRDTLCSDEYFAGGLHSSFDDLCGNSGCGNQERKLEGSINDIKSDVCISSLVLKANNIHSSPSFTHLDKSSPQKFLSNLSKEEINLQRNIAGKVVTPDQKQAAGMSQETFEEKYRLSPTLSSTKGHLLIHSRPRSSSVKRKRVSHGSHSPPKEKCKRKRSTRRSIMPRLQLCRSEDRLQHVAGPALEALSCGESSYDDYFSPDNLKERYSENLPPESQLPSSPAQLSCRSLSKKERTSIFEMSDFSCVGKKTRTVDITNFTAKTISSPRKTGNGEGRATSSCVTSAPEEALRCCRQAGKEDACPEGNGFSYTIEDPALPKGHDDDLTPLEGSLEEMKEAVGLKSTQNKGTTSKISNSSEGEAQSEHEPCFIVDCNMETSTEEKENLPGGYSGSVKNRPTRHDVLDDSCDGFKDLIKPHEELKKSGRGKKPTRTLVMTSMPSEKQNVVIQVVDKLKGFSIAPDVCETTTHVLSGKPLRTLNVLLGIARGCWVLSYDWVLWSLELGHWISEEPFELSHHFPAAPLCRSECHLSAGPYRGTLFADQPAMFVSPASSPPVAKLCELVHLCGGRVSQVPRQASIVIGPYSGKKKATVKYLSEKWVLDSITQHKVCAPENYLLSQ
B5: FLAG-MCPH1^S333A (natural protein)
chain: B4 chain with S333A
B6: MCPH1^TBM peptide P334A, synthetic (peptide)
peptide: SQETFEEKYRLSATLSSTKGH
B7: MCPH1^TBM peptide S333A, synthetic (peptide)
peptide: SQETFEEKYRLAPTLSSTKGH
B8: MCPH1^TBM peptide, wild type, synthetic (peptide)
peptide: SQETFEEKYRLSPTLSSTKGH

Columns and labels:
[1] = target: TRF2^TRFH (TRF Homology domain of human TRF2, residues 42–245) (human); assay: ITC; MCPH1^TBM peptides at 1.0 mM in the syringe titrated into TRF2^TRFH at 0.1 mM in the sample cell; 20 °C; 25 mM Tris-HCl pH 8.0, 150 mM NaCl
[2] = target: TRF2, endogenous (U2OS) (human (endogenous in U2OS)) (UniProt Q15554)
Chain of UniProt Q15554 (Q15554 whole entry): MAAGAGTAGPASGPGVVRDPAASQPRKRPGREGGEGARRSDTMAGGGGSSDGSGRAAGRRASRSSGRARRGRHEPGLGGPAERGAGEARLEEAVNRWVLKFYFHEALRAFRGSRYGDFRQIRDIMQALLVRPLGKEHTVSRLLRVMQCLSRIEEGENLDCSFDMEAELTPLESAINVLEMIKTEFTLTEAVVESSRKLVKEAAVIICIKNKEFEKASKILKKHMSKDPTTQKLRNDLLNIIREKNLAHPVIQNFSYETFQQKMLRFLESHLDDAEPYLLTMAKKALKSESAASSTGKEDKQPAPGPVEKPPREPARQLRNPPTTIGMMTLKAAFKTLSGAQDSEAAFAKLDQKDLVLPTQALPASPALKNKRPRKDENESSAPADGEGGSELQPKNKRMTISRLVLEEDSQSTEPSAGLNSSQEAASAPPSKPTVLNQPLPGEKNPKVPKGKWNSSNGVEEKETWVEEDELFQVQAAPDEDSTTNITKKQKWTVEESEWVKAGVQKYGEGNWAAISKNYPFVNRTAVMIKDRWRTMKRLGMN

Row | Kd [1] [µM] | percentage of HeLa cells with >5 FLAG-MCPH1 foci at telomeres (immunostaining and telomere PNA-FISH), functional telomeres [2] | Binder
1 | 79 | – | B1
2 | 21 | – | B2
3 | 14 | – | B3
4 | – | 11 % of cells | B4
5 | – | 48 % of cells | B5
6 | 24 | – | B6
7 | 0.16 | – | B7
8 | 0.24 | – | B8
